Like-named read-outs stand apart in the source and are kept apart here. Numbered stars: 1 amine (or outer) side, 2 acyl side, 3 side chain; on linkers, the order of the positions; unused ones are H or OH. Square brackets hold non-standard residues; d marks the D form. Ends that are not written are not given here. * marks the point of attachment. CO(CH2CH2O)13CH2CH2CO = O=C(CCOCCOCCOCCOCCOCCOCCOCCOCCOCCOCCOCCOCCOCCC(=O)[*:2])[*:1]; 5FAM = O=C1OC2(c3ccc(O)cc3Oc3cc(O)ccc32)c2ccc(C(=O)*)cc21; NMeE = CN[C@@H](CCC(=O)O)C(=O)O
B1: SSIESDV (5) (peptide)
peptide: SSIESDV
notes: N-terminal truncation of the NR2B peptide (1)
B2: SIESDV (6) (peptide)
peptide: SIESDV
notes: as for B1
B3: (GE[N-Cyclohexylethyl]TDV)2PEG12 (75) (peptide)
peptide: {CO(CH2CH2O)13CH2CH2CO}-GETDV-OH
modifications: not fully specified (residue 2); printed as (GE[N-Cyclohexylethyl]TDV)2PEG12 (75); also: dimer: two peptides N-terminally joined via PEG12-diacid
notes: Dimeric ligand; also called (GE[R]TDV)2-PEG12 (75)
B4: 5-FAM/Cy5-NR2B (peptide)
peptide: 5FAM-KSGYEKLSSIESDV
modifications: also: entry also covers Cy5-NR2B: CSG linker, Cy5-maleimide on Cys
notes: Kd said to be independent of the fluorophore; also called 5-FAM-NR2B; 5-Fam-NR2B peptide
B5: (IETAV)2PEG4 (83) (peptide)
peptide: IETAV
modifications: also: dimer: two peptides joined at N-terminal amines by amide bonds through a PEG4-diacid linker
notes: Dimeric ligand
B6: HIS-PDZ3 protein (PSD-95 PDZ3, residues 309-401, with tag MHHHHHPRGS) (other)
chain: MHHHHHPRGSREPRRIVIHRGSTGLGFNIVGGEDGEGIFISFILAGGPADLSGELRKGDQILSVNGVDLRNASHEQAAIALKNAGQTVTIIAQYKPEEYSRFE

Key:
[1] = biological target: T1, HIS-PDZ1 protein (PSD-95 PDZ1, residues 61-151, with tag …) (human, UniProt P78352 61-151); experiment: FP competition, fluorescent NR2B probe
T1 construct: expressed in E. coli

[2] = biological target: T2, HIS-PDZ2 protein (PSD-95 PDZ2, residues 155-249, with tag …) (human, UniProt P78352 155-249); experiment: FP competition, fluorescent NR2B probe
[3] = biological target: B6; experiment: FP competition, fluorescent CRIPT probe
[4] = biological target: T1, HIS-PDZ1 protein (PSD-95 PDZ1, residues …); experiment: FP competition assay (Ki), fluorescent NR2B probe displaced from the PDZ domain; bar chart
[5] = biological target: T2, HIS-PDZ2 protein (PSD-95 PDZ2, residues …); experiment: as above
[6] = biological target: T2, HIS-PDZ2 protein (PSD-95 PDZ2, residues …); experiment: FP competition: displaces fluorescent NR2B probe (50 nM) from PDZ2 (3 µM)
[7] = biological target: T2, HIS-PDZ2 protein (PSD-95 PDZ2, residues …); experiment: ITC
[8] = biological target: T1, HIS-PDZ1 protein (PSD-95 PDZ1, residues …); experiment: FP competition: displaces fluorescent NR2B probe (50 nM) from PDZ1 (20 µM)
[9] = biological target: T2, HIS-PDZ2 protein (PSD-95 PDZ2, residues …); experiment: FP competition, fluorescent NR2B probe; remark: listed apart in the source
[10] = biological target: T3, HIS-PDZ1-2 protein (PSD-95 PDZ1-2 tandem, residues 61-249, with tag …) (human, UniProt P78352 61-249); experiment: FP competition: displaces fluorescent NR2B probe (50 nM) from PDZ1-2 (3 µM)
[11] = biological target: T3, HIS-PDZ1-2 protein (PSD-95 PDZ1-2 …); experiment: as above; remark: listed apart in the source
[12] = biological target: T3, HIS-PDZ1-2 protein (PSD-95 PDZ1-2 …); experiment: ITC
[13] = biological target: T3, HIS-PDZ1-2 protein (PSD-95 PDZ1-2 …); experiment: FP competition, fluorescent NR2B probe
[14] = biological target: T3, HIS-PDZ1-2 protein (PSD-95 PDZ1-2 …); experiment: FP competition, fluorescent NR2B probe; exact Ki not calculable
[15] = biological target: T2, HIS-PDZ2 protein (PSD-95 PDZ2, residues …); experiment: FP competition, fluorescent NR2B probe; remark: listed apart in the source
[16] = biological target: T4, HIS-PDZ1-2 with tryptophan instead of isoleucine (PDZ1-2 I195W) (human, UniProt P78352 61-249); experiment: stopped-flow fluorimetry, Trp fluorescence; stopped-flow fluorescence titration, not FP
T4 construct: Used in the stopped-flow fluorimetry of ligand 74; also called PDZ1-21195W (so in the source)

[17] = biological target: T3, HIS-PDZ1-2 protein (PSD-95 PDZ1-2 …); experiment: FP competition, fluorescent NR2B probe; exact Ki not calculable; remark: listed apart in the source
[18] = biological target: B6; experiment: FP competition: fluorescent CRIPT probe (50 nM) on PDZ3 (5 µM)
[19] = biological target: T2, HIS-PDZ2 protein (PSD-95 PDZ2, residues …); experiment: FP competition, alanine scan
[20] = biological target: T1, HIS-PDZ1 protein (PSD-95 PDZ1, residues …); experiment: FP competition, fluorescent NR2B probe; remark: listed apart in the source
[21] = biological target: T3, HIS-PDZ1-2 protein (PSD-95 PDZ1-2 …); experiment: FP competition, fluorescent NR2B probe; remark: listed apart in the source
[22] = biological target: T1, HIS-PDZ1 protein (PSD-95 PDZ1, residues …); experiment: FP saturation binding
[23] = biological target: B6; experiment: FP saturation binding
[24] = biological target: T3, HIS-PDZ1-2 protein (PSD-95 PDZ1-2 …); experiment: FP saturation binding
[25] = biological target: T2, HIS-PDZ2 protein (PSD-95 PDZ2, residues …); experiment: FP saturation binding
[26] = biological target: B6; experiment: FP competition, fluorescent CRIPT probe; remark: listed apart in the source
[27] = biological target: T3, HIS-PDZ1-2 protein (PSD-95 PDZ1-2 …); experiment: ITC / FP
[28] = biological target: T3, HIS-PDZ1-2 protein (PSD-95 PDZ1-2 …); experiment: ITC; dimeric ligand, two IETAV joined by a PEG4 linker (X = 4)
Tat-NR2B (3) = biological target: T5, Tat-NR2B (3); experiment: FP competition, fluorescent CRIPT probe
T5 construct: also called Tat-N2B (3); 20-mer Tat-NR2B peptide

## [NMeE]TAV (also called N-Methyl-ETAV (40)) [EMeTAV (40)]
[1]
  Ki: 11 µM
[2]
  Ki: 8.9 µM
[3]
  Ki: ~79 µM

## B1
[4]
  binding result: binds
[5]
  binding result: binds

## IESDV (also called pentapeptide (7)) [IESDV (7)]
[6]
  IC50 (read off the curve): ~9 µM
[7]
  Kd: 2.6 µM
[8]
  IC50 (read off the curve): ~50 µM
[9]
  Ki: 3.1 µM
[10]
  IC50 (read off the curve): ~10 µM
[11]
  IC50 (read off the curve): ~9 µM

## B2
[4]
  binding result: binds
[5]
  binding result: binds

## {PEG0‑diacid}-IESDV (also: dimer: two peptides N-terminally joined via PEG0-diacid, Dimeric ligand) [Compound 81 (IESDV dimerized with PEG0-diacid)]
[12]
  Kd: 1.1 µM
[13]
  Ki: 1.5 µM
[9]
  Ki: 3.1 µM
[11]
  IC50 (read off the curve): ~5 µM

## {PEG12‑diacid}-IESDV (also: dimer: two peptides N-terminally joined via PEG12-diacid, Dimeric ligand) [(IESDV)2PEG12 (74)]
[14]
  Ki: ~0.1 µM
[12]
  Kd: 0.09 µM
[15]
  Ki: 2.8 µM
[9]
  Ki: 3.1 µM
[16]
  Ki: ~0.1 µM
[17]
  Ki: ~0.1 µM
[18]
  binding result: no binding (tested: log(Conc/M) about -3.3)

## IEADV [Compound 12 (IESDV with Ser P^-2 replaced by Ala)]
[19]
  fold increase in Ki on Ala substitution of Ser (P^-2) in pentapeptide (7): 7 fold

## IESAV [Compound 13 (IESDV with Asp P^-1 replaced by Ala)]
[3]
  fold higher Ki than CRIPT: > 30 fold

## B3
[20]
  Ki: 83 µM
[21]
  Ki: 5.5 µM
[15]
  Ki: 55 µM
[18]
  binding result: no binding (tested: log(Conc/M) about -3.6)

## B4
[22]
  Kd: 20 µM
[23]
  binding result: no binding
[24]
  Kd: 1.7 µM
[25]
  Kd: 3 µM

## KSGYEKLSSIESDV (also called NR2B peptide (1); NR2B WT) [NR2B (1), non-fluorescent NR2B peptide KSG-YEKLSSIESDV]
[26]
  binding result: no binding
[21]
  Ki: 6.8 µM

## {PEG4‑diacid}-IESDV (also: dimer: two peptides N-terminally joined via PEG4-diacid, Dimeric ligand) [(IESDV)2PEG4 (78)]
[14]
  Ki: ~0.1 µM
[12]
  Kd: 0.032 µM
[7]
  Kd: 3.3 µM
[9]
  Ki: 2.7 µM

## B5
[27]
  fold increase in affinity compared to monomeric IETAV (82): 176 fold
[14]
  Ki: ~0.1 µM
[28]
  Kd: 0.011 µM
[9]
  Ki: 1.1 µM

## KQTSV [truncated CRIPT pentapeptide (KQTSV)]
[3]
  fold reduction in Ki (so in the source) compared with CRIPT peptide (2): 14 fold

## 5FAM-KSGLDTKNYKQTSV (also: entry also covers Cy5-CRIPT: CSG linker, Cy5-maleimide on Cys, also called 5-FAM-CRIPT) [5-FAM/Cy5-CRIPT]
[23]
  Kd: 3.5 µM

## B6
Tat-NR2B (3)
  binding result: no binding

Source: patent US20160176924A1 (UNIVERSITY OF COPENHAGEN, published 2016)
